Experimental data: patent US20130236470A1 (JUNTENDO EDUCATINAL FOUNDATION, published 2013)

Assays:
[1] = biological target: T1, peptide sequence WNSQKDILEQKRG of the HLA-DR β-chain (human); assay: peptide microarray of overlapping HLA-DR52 β chain peptides
T1 construct: on the microarray as overlapping 8- to 12-mers
T1 peptide: WNSQKDILEQKRG
Method: (§1) Overlapping peptides consisting of 8 to 12 amino acids shifted by one amino acid were chemically synthesized from their C termini on an array using the amino acid sequence of an HLA-DR52 β chain having the highest homology as a result of analysis using software Mascot (Shimadzu Techno-Research, Inc.) to prepare a peptide microarray (LC Sciences, LLC, Texas, US). First, the array was blocked by immersion overnight at 4° C. in a SuperBlock (pH 7.0) (Pierce Biotechnology Inc.) solution containing 0.05% Tween-20 to prevent nonspecific antibody binding. […] The array was washed with the washing solution for 20 minutes and then incubated at 25° C. for 1 hour in a 10 ng/mL Cy5-labeled goat anti-mouse IgG antibody solution. Cy5 was assayed at a wavelength of 635 nm using a microarray scanner (PMT 700 V). Since nonspecific binding to a peptide sequence having a C-terminal tryptophan residue was observed, this sequence was omitted and peptide sequences showing specific binding were then analyzed. […] A peptide sequence ([…]: SEQ ID NO: 2) of the HLA-DR β-chain to which an antibody described in WO2003/033538 bind is located 6 amino acid residues before the second N-terminal cysteine residue.

#25 = biological target: T2, #25 (human); assay: SPOTs peptide membrane (HLA-DR epitope peptide library)
T2 peptide: WNSQKDFLERRRA

#34 = biological target: T3, #34 (human); assay: as above
T3 peptide: WNSQKDLLEQRRA

#38 = biological target: T4, #38 (human); assay: as above
T4 peptide: WNSQKDLLERRRA

DR12-2 = biological target: T5, DR12-2 (human); assay: SPOTs peptide membrane, biotinylated 4713 antibody 1 µg/mL
T5 construct: HLA-DR12 overlapping peptide on SPOTs membrane
T5 peptide: SSLAALTVTLMVLSS
Method: (§2) In order to reconfirm the results obtained using the peptide microarray, HLA-DR expressed by L428 cells was analyzed. […] Next, overlapping peptides were synthesized from the amino acid sequence of HLA-DR12 to prepare a custom SPOTs nitrocellulose membrane (Sigma-Aldrich Corp.). The membrane was rinsed with methanol for 5 minutes, then washed with a […] (TBS), and incubated at room temperature for 2 hours for blocking. […] The membrane was washed and then incubated for 2 hours in a solution of peroxidase (HRP)-labeled streptavidin (manufactured by Dako Japan Inc.) diluted 3000-fold with TBS. After washing, positive spots were detected using ECL Prime Western Blotting Detection kit (manufactured by GE Healthcare Japan Corp.) and a chemiluminescence detector (LAS-4000) (Table 3). As a result, the most strongly reacted peptide was DR12-26, followed by DR12-6 and DR12-13. […] Although an HLA-DR12-derived peptide to which the antibody described in WO2003/033538 binds was also arrayed as DR12-28, no binding was seen (Table 3).

DR12-3 = biological target: T6, DR12-3 (human); assay: as above
T6 construct: HLA-DR12 overlapping peptide on SPOTs membrane
T6 peptide: LMVLSSRLAFAGDTR
Method: as §2

DR12-4 = biological target: T7, DR12-4 (human); assay: as above
T7 construct: HLA-DR12 overlapping peptide on SPOTs membrane
T7 peptide: FAGDTRPRFLEYSTG
Method: as §2

DR12-6 = biological target: T8, DR12-6 (human); assay: as above
T8 peptide: FFNGTERVRLLERHF
Method: as §2

DR12-7 = biological target: T9, DR12-7 (human); assay: as above
T9 construct: HLA-DR12 overlapping peptide on SPOTs membrane
T9 peptide: LLERHFHNQEELLRF
Method: as §2

DR12-13 = biological target: T10, DR12-13 (human); assay: as above
T10 construct: HLA-DR12 overlapping peptide on SPOTs membrane; also called DR-13
T10 peptide: RHNYGAVESFTVQRR
Method: as §2

DR12-14 = biological target: T11, DR12-14 (human); assay: as above
T11 construct: HLA-DR12 overlapping peptide on SPOTs membrane
T11 peptide: FTVQRRVHPKVTVYP
Method: as §2

DR12-15 = biological target: T12, DR12-15 (human); assay: as above
T12 construct: HLA-DR12 overlapping peptide on SPOTs membrane
T12 peptide: KVTVYPSKTQPLQHH
Method: as §2

DR12-17 = biological target: T13, DR12-17 (human); assay: as above
T13 construct: HLA-DR12 overlapping peptide on SPOTs membrane
T13 peptide: VCSVSGFYPGSIEVR
Method: as §2

DR12-25 = biological target: T14, DR12-25 (human); assay: as above
T14 construct: HLA-DR12 overlapping peptide on SPOTs membrane
T14 peptide: WRARSESAQSK
Method: as §2

DR12-26 = biological target: T15, DR12-26 (human); assay: as above
T15 construct: HLA-DR12 peptide on SPOTs membrane; also called DR-26
T15 peptide: RNQKGHSGLQPRGFLS
Method: as §2

TRAIL death receptor DR4 = biological target: T16, TRAIL death receptor DR4 (UniProt O00220 24-468, limits assumed); assay: flow cytometry on BHK cells transfected with the DR4 receptor gene
T16 construct: whole, on cells; also called DR4 receptor
T16 sequence (looked up): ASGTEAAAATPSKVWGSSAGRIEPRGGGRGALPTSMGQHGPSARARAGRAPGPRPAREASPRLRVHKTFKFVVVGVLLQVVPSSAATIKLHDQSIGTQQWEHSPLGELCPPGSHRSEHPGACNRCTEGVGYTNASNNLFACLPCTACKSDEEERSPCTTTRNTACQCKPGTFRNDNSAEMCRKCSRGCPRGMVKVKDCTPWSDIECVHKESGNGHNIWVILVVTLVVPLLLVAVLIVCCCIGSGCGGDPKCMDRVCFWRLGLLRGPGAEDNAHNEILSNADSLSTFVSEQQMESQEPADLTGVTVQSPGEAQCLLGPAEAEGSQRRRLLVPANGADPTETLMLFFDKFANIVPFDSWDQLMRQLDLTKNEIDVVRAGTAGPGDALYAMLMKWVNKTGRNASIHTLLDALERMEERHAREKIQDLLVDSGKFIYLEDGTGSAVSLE
Method: (§3) Hamster-derived BHK cells transfected with the DR4 receptor or DR5 receptor gene were incubated with the antibody of the present invention for 1 hour and analyzed by flow cytometry in the same way as in Example 6.
(§4) In order to confirm whether the antibody of the present invention targets a TNF-related apoptosis inducing ligand (TRAIL) death receptor DR4 or DR5 known as a death receptor (cell death-inducing antigen), the antibody of the present invention was examined for its ability to stain hamster-derived BHK cells transfected with the DR4 receptor or DR5 receptor gene in the same way as above. As a result, the cells were stained by a known antibody against DR4 receptor or DR5 receptor (red line), but not stained by the antibody of the present invention (FIG. 9).

TRAIL death receptor DR5 = biological target: T17, TRAIL death receptor DR5 (UniProt O14763 56-440, limits assumed); assay: flow cytometry on BHK cells transfected with the DR5 receptor gene
T17 construct: whole, on cells; also called DR5 receptor
Method: as §3, §4

[2] = biological target: T18, HLA-DR expressed by L428 cells (human); assay: flow cytometry on L428 cells, serially diluted antibody; reference LN3
T18 construct: whole, on cells; The assay is on L428 cells; also called HLA-DR12; HLA-DR on L428 cells
Method: The ability of each antibody to bind to L428 cells was analyzed by incubation with each of serially diluted antibody solutions using a flow cytometer. […] For cell death induction, the uptake of propidium iodide (PI) was analyzed using a flow cytometer.

peptide CRHNYGVGESFT = biological target: T19, peptide CRHNYGVGESFT (human); assay: peptide microarray of overlapping HLA-DR52 β chain peptides, 5 µg/mL 4713 mAb
T19 construct: Region of the HLA-DR52 β chain on the peptide microarray (overlapping 8- to 12-mers)
T19 peptide: CRHNYGVGESFT
Method: as §1

binding result [1]: no binding (tested: 5 µg/mL) | binding result (#25): binds | binding result (#34): binds | binding result (#38): binds | binding result (DR12-2): binds | binding result (DR12-3): binds | binding result (DR12-4): binds | binding result (DR12-6): binds | binding result (DR12-7): binds | binding result (DR12-13): binds | binding result (DR12-14): binds | binding result (DR12-15): binds | binding result (DR12-17): binds | binding result (DR12-25): binds | binding result (DR12-26): binds | fold lower concentration for binding than LN3 [2]: ~10 times | binding result (peptide CRHNYGVGESFT): binds
B1: 4713 mAb (antibody, mouse IgG1, V domains shown)
VH: DVQLQESGPGLVKPSQSLSLTCTVTGYSITNDYAWNWIRQFPGNKLEWMGYISYNDFTYYNPSLKSRISITRDTSKNQFFLQLNSVTAEDTATYYCVSERLRLVNHVMDYWGQGTSVIVSS
VL: QIVLTQSPPIMSASPGEKVTMTCSASSSVNYMHWHQQKSGTSPKKWIYDTSKLISGVPARFSGSGSGTSYSLTISSVEAEDAATYYCQQWSSYPFTFGSGTKLEIK
modifications: Used biotinylated on the SPOTs membranes; the site is not given.
notes: also called monoclonal antibody of the present invention
binding result (TRAIL death receptor DR4): no binding | binding result (TRAIL death receptor DR5): no binding
